EC50 data for five molecules are collected here from patent publication US20210317231A1 (BYONDIS B V, published 2021).

In experiment [1] the target is T1, cynomolgus monkey 5T4 antigen (cynomolgus monkey, UniProt Q4R8Y9 35-420).
T1 construct: whole, on cells; also called cyno 5T4
T1 sequence (looked up): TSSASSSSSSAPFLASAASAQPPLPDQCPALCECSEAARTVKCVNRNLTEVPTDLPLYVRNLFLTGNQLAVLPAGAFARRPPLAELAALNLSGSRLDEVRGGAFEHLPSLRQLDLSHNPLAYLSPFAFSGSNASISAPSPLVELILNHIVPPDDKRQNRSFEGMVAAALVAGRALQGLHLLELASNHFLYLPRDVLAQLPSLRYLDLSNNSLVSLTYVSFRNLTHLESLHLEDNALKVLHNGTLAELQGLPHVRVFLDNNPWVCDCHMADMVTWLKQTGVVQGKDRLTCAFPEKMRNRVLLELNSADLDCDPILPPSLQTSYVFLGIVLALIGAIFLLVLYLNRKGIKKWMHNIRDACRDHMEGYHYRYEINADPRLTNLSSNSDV
As to the kind of experiment: flow cytometry, CHOZN cells expressing cyno 5T4.

Experiment [2] has as its target T2, human 5T4 oncofoetal antigen (human, UniProt Q13641 32-420).
T2 construct: whole, on cells; also called hu 5T4; human 5T4 antigen
T2 sequence (looked up): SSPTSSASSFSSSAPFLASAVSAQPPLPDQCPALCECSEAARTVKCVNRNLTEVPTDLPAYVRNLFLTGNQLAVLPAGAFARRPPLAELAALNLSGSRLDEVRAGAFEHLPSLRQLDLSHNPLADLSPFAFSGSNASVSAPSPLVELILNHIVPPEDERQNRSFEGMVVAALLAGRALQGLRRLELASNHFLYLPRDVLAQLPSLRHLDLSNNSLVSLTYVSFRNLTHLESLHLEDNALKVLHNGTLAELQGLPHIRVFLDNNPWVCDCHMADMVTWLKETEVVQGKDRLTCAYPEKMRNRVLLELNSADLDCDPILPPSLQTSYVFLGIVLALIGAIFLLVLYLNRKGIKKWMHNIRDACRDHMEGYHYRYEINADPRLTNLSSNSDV
As to the kind of experiment: flow cytometry, CHOZN cells expressing hu 5T4. Background: In flow cytometry, cells or beads pass a laser one at a time.

One may read the EC50 as the concentration giving half of the maximal effect.

B1: humanized anti-5T4 antibody 825b with HC-41C mutation (antibody, human IgG1, kappa, V domains shown)
VH: EVQLEESGGGLVKPGGSLRLSCAASGIDLSSYGMGWVRQACGKGLEWVSIISRNSVTYYATWAKGRFTISRDNSKNTLYLQMNSLRAEDTAVYYCARRATYSGALGYFDIWGRGTLVTVSS
VL: EIVMTQSPSSLSASVGDRVTITCQASENIYSTLAWYQQKPGKAPKLLIYDAFDLASGVPSRFSGSGSGTDYTLTISSLQPEDFATYYCQQGYSGTNVDNAFGQGTKLEIKR
B1: the values for the EC50 in experiment [1] and in experiment [2] were 0.46 µg/mL and 0.16 µg/mL, respectively.

B2: humanized anti-5T4 antibody 825c with HC-41C mutation (antibody, human IgG1, kappa, V domains shown)
VH: EVQLEESGGGLVKPGGSLRLSCAASGIDLSSYGMGWVRQACGKGLEWVSIISRNSVTYYATWAKGRFTISRDNSKNTLYLQMNSLRAEDTAVYYCARRATYSGALGYFDIWGRGTLVTVSS
VL: GYDMTQSPSSVSASVGDRVTITCQASENIYSTLAWYQQKPGKAPKLLIYDAFDLASGVPSRFKGSGSGTEYTLTISSLQPEDFATYYCQQGYSGTNVDNAFGGGTKVEIKR
Regarding B2, the results for the EC50 in experiment [1] and in experiment [2] were 0.42 µg/mL and 0.21 µg/mL, respectively.

B3: humanized anti-5T4 antibody 825a with HC-41C mutation (antibody, human IgG1, kappa, V domains shown)
VH: EVQLVESGGDLAQPGGSLRLSCAVSGIDLSSYGMGWVRQACGKGLEWVSIISRNSVTYYATWAKGRFTISRDNSKNTVYLQMTSLRAEDTALYFCARRATYSGALGYFDIWGQGTLVTVSS
VL: EIVMTQSPSSLSASVGDRVTITCQASENIYSTLAWYQQKPGKAPKLLIYDAFDLASGVPSRFSGSGSGTDYTLTISSLQPEDFATYYCQQGYSGTNVDNAFGQGTKLEIKR
For B3, the EC50 turned out to be 0.53 µg/mL in experiment [1] and 0.15 µg/mL in experiment [2].

B4: humanized anti-5T4 antibody 833c with HC-41C mutation (antibody, human IgG1, kappa, V domains shown)
VH: EVQLEESGGGLVKPGGSLRLSCAASGIDLSHYVVGWVRQACGKGLEWVSIIYGSGRTYYANWAKGRFTISRDNSKNTLYLQMNSLRAEDTAVYYCARDASVSVYYWGYFDLWGRGTLVTVSS
VL: DIQMTQSPSTLSASVGDRVTITCQASQSIGSELAWYQQKPGKAPKLLIYRASTLESGVPSRFSGSGSGTEFTLTISSLQPDDFATYYCQQGYTYSEIDNAFGQGTKVEIKR
Consider B4, for which the half-maximal effective concentration (EC50) was determined as 0.17 µg/mL in experiment [1] and 0.18 µg/mL in experiment [2].

B5: humanized anti-5T4 antibody 833d with HC-41C mutation (antibody, human IgG1, kappa, V domains shown)
VH: QSLEESGGGLVQPGGSLRLSCAASGIDLSHYVVGWVRQACGKGLEWIGIIYGSGRTYYANWAKGRFTISRHNSKNTLYLQMNSLRAEDTAVYYCARDASVSVYYWGYFDLWGQGTLVTVSS
VL: DIQMTQSPSSLSASVGDRVTITCQASQSIGSELAWYQQKPGQAPKLLIYRASTLESGVPSRFSGSGSGTEFTFTISSLQPEDLATYYCQQGYTYSEIDNAFGQGTKLEIKR
Regarding B5, the EC50 worked out at 0.16 µg/mL in experiment [1] and 0.18 µg/mL in experiment [2].
